Data on one molecule can be found in patent US8865222B2, “Beta-casein assemblies for enrichment of food and beverages and methods of preparation thereof” (Technion Research and Development Foundation Ltd., priority 2008, dated 2014).

Marks after values point to notes of the source that are not given here.

Data set [1] is described as follows: Isothermal titration calorimetry (ITC) demicellization of beta-casein micellar solution. Format: physicochemical. As to the method: • Cryo-TEM: Specimens were prepared in the controlled environment vitrification system (CEVS) (Bellare et al. Electron Microsc. Technique, 1988, 10; 87-111) at 24° C. and 100% relative humidity to avoid loss of volatiles. First, the solutions were incubated in the CEVS at the desired temperature for 1 h. Then, a 7 μL drop of each solution was placed on a TEM copper grid covered with a perforated carbon film (Pelco International) and blotted with filter paper to form a thin liquid film of the sample (100-200 nm thick). The thinned sample was plunged into liquid ethane at its freezing temperature (−183° C.) to form a vitrified specimen and then transferred to liquid nitrogen ([…]) for storage. The vitrified specimens were examined in a Philips CM120 transmission electron microscope operating at an accelerating voltage of 120 kV. We used an Oxford CT3500 (Oxford Instruments) cryoholder that maintained the specimens below −175° C. during sample transfer and observation. Images were recorded digitally on a cooled Gatan MultiScan 791 CCD camera using DigitalMicrograph 3.1 software (Gatan) in the low-dose imaging mode to minimize beam exposure and electron-beam radiation damage. • ITC: ITC measurements were performed with a VP-ITC calorimeter (MicroCal) at a temperature of 24° C. The reaction cell (V=1.43 mL) was filled with degassed solvent (lactic acid at pH 2.6, or phosphate buffer at pH 7.0). The injector-stirrer syringe (289 μL) was loaded with a beta-casein micellar solution (20 mg/mL). The micellar solution was injected into the reaction cell in 28 steps of 10 μL aliquots each, and the heat flow was measured. During the titration, the stirring speed was 310 rpm. The duration of each injection was 20 s, and the equilibration time between consecutive injections was 3 min. Such an interval was sufficient to equilibrate the reaction cell after every injection. Each experiment was performed at least three times. Calorimetric data analysis was carried out using Origin 5.0 software (MicroCal). • Analytical Ultracentrifugation: Sedimentation equilibrium experiments were performed at 24° C. using a Beckman Optima XL-A (Palo Alto, Calif.) analytical centrifuge at 6000, 10000, and 12000 rpm for the low-pH solutions and at 4000, 6000, and 8000 rpm for the pH 7.0 solutions. Data were collected at 280 nm. The beta-casein solutions were studied at concentrations ranging from 0.2 to 10.0 mg/mL at pH 2.6 and from 0.2 to 2 mg/mL at pH 7.0 and an ionic strength of 0.1. […] The average apparent molecular weight of the micelles at the various protein concentrations was calculated following methods well known in the art (The partial specific volume vj of the solute was taken to be 0.742 cm3/g3, and a solution density F of 1.0044 g/cm3 was measured). At beta-casein concentrations of 2 mg/mL and above under low pH conditions, the plot of the natural logarithm of the measured absorbance versus the square of the radius from the axis of rotation was not linear. To estimate Nagg, the limiting slope toward the outer edge of the sample cell was used to provide dln(c)/dr^2. The molecular weight calculated using this slope was divided by the monomer molecular weight calculated from the beta-casein amino acid sequence (24000).
• Characterization of the beta-casein micelles by ITC: beta-casein micellar solution was titrated into lactic acid buffer (pH 2.6) placed in the ITC cell, and the heat flow was measured as a function of time (FIG. 6A). Three factors contribute to the exothermic enthalpy changes observed at the initial injections: micelle dilution, demicellization, and dilution of individual beta-casein molecules. The enthalpy changes decrease in magnitude as more protein is added and the concentration in the ITC cell increases. Eventually, the concentration in the cell exceeds the CMC and only micelle dilution contributes to the heat flow. […]

A short description of data set [2]: Analytical ultracentrifugation, sedimentation equilibrium. It counts as physicochemical. The procedure:
• Cryo-TEM: Specimens were prepared in the controlled environment vitrification system (CEVS) (Bellare et al. Electron Microsc. Technique, 1988, 10; 87-111) at 24° C. and 100% relative humidity to avoid loss of volatiles. First, the solutions were incubated in the CEVS at the desired temperature for 1 h. Then, a 7 μL drop of each solution was placed on a TEM copper grid covered with a perforated carbon film (Pelco International) and blotted with filter paper to form a thin liquid film of the sample (100-200 nm thick). The thinned sample was plunged into liquid ethane at its freezing temperature (−183° C.) to form a vitrified specimen and then transferred to liquid nitrogen ([…]) for storage. The vitrified specimens were examined in a Philips CM120 transmission electron microscope operating at an accelerating voltage of 120 kV. We used an Oxford CT3500 (Oxford Instruments) cryoholder that maintained the specimens below −175° C. during sample transfer and observation. Images were recorded digitally on a cooled Gatan MultiScan 791 CCD camera using DigitalMicrograph 3.1 software (Gatan) in the low-dose imaging mode to minimize beam exposure and electron-beam radiation damage. • ITC: ITC measurements were performed with a VP-ITC calorimeter (MicroCal) at a temperature of 24° C. […] The micellar solution was injected into the reaction cell in 28 steps of 10 μL aliquots each, and the heat flow was measured. […] The average apparent molecular weight of the micelles at the various protein concentrations was calculated following methods well known in the art (The partial specific volume vj of the solute was taken to be 0.742 cm3/g3, and a solution density F of 1.0044 g/cm3 was measured). At beta-casein concentrations of 2 mg/mL and above under low pH conditions, the plot of the natural logarithm of the measured absorbance versus the square of the radius from the axis of rotation was not linear. […] The molecular weight calculated using this slope was divided by the monomer molecular weight calculated from the beta-casein amino acid sequence (24000). […]

B1: beta-casein: lyophilized bovine beta-casein (~24 kDa milk protein) self-assembled into nano-sized micelles at low or neutral pH (protein, UniProt P02666 16-224, looked up)
Beta-casein: RELEELNVPGEIVESLSSSEESITRINKKIEKFQSEEQQQTEDELQDKIHPFAQTQSLVYPFPGPIPNSLPQNIPPLTQTPVVVPPFLQPEVMGVSKVKEAMAPKHKEMPFPKYPVEPFTESQSLTLTDVENLHLPLPLLQSWMHQPHQPLPPTVMFPPQSVLSLSQSKVLPVPQKAVPYPQRDMPIQAFLLYQEPVLGPVRGPFPIIV
As to B1, the “heat of demicellization, ΔHdemic” value is about -4.28 kcal/mol in data set [1] (pH 2.6, 24 °C); -9.687 kcal/mol in data set [1] (pH 7.0 and IS of 0.1). Also, the CMC is listed as 1.89 mg/mL in data set [1] (pH 2.6, 24 °C, ITC); 0.19* wt % in data set [1] (pH 2.6, 25 °C row of table, found by ITC (footnote *)); 0.079 mM in data set [1] (pH 2.6, ITC). Also, in data set [1] (pH 2.6, IS 0.002, 24 °C), the “relative micellization cooperativity (MR)” value was found to be 0.14 mM. This molecule gave an aggregation number in data set [2] (pH 2.6, around the CMC) of 3. In addition, in data set [2] (pH 2.6, concentrations lower than the CMC), the aggregation state result is “monomeric”. In data set [2] (pH 7.0 and ionic strength 0.1), the Nagg is 20.
